Laboratory results published in article doi:10.1101/2025.11.19.689067 (bioRxiv, 2025).

Key:
Assay in all cases: bead-based binding assay (Luminex)
[1] = biological target: DENV2 NS1 β-ladder-Halotag (residues 178-352) (dengue virus serotype 2)
[2] = biological target: DENV2 NS1 wing-Halotag (residues 30-174) (dengue virus serotype 2)
[3] = biological target: T1, DENV2 NS1 (recombinant, biotinylated, on Luminex beads) (dengue virus serotype 2, UniProt P29990 776-1127); settings: both partners purified
T1 sequence: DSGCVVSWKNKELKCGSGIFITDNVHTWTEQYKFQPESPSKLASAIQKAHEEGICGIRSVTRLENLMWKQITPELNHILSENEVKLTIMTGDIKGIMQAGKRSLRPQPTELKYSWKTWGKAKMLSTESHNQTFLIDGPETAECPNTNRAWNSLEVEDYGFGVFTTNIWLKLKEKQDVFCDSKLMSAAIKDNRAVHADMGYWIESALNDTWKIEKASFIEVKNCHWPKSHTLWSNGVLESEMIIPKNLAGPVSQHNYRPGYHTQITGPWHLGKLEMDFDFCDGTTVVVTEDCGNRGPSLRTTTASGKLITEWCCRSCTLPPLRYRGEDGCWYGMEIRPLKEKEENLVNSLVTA

In the case of “EFNB1 RBD-Fc fusion protein (from UniProt P98172 28-164)”, the fold relative binding (EFNB1 Fc over Gluc Fc) [1] is reported as 15 fold and the fold relative binding (EFNB1 Fc over Gluc Fc) [2] is reported as 50 fold.

B1: EFNB1 RBD-Fc fusion protein (Fc fusion)
chain: LAKNLEPVSWSSLNPKFLSGKGLVIYPKIGDKLDIICPRAEAGRPYEYYKLYLVRPEQAAACSTVLDPNVLVTCNRPEQEIRFTIKFQEFSPNYMGLEFKKHHDYYITSTSNGSLEGLENREGGVCRTRTMKIIMKV
In the case of B1, the “fold binding over the Gluc-Fc negative control” value [3] is reported as 40 fold.
